# Primed or numbered codes have the meaning given here. Where no end group is shown, it is not given here. [ ]: non-standard residue; d: D form. Fc(3) = Fc: non-antigen-binding fragment of an antibody from proteolytic digestion of a whole antibody (vehicle); Fc = immunoglobulin Fc domain fused to the peptide (peptibody); Fc(7) = Fc domain, peptide fused N- or C-terminal to it; Fc″ = Fc domain of the peptibody fusion
# T1: mouse Ang-2 (mouse, UniProt O35608)
# T1 chain: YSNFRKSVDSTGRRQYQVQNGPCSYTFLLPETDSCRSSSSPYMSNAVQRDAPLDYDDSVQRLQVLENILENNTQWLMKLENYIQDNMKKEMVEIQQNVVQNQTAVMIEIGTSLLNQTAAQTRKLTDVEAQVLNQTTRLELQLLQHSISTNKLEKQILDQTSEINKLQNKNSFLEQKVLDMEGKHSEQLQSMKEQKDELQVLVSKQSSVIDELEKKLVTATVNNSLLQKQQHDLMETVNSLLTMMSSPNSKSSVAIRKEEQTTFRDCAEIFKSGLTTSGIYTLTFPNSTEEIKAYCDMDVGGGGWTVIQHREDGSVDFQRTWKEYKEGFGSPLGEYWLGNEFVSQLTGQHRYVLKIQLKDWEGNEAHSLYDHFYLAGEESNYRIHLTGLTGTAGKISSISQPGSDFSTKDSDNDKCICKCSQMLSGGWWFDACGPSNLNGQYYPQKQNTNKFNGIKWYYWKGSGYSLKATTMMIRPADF
# T2: human Ang-1 (human, UniProt Q15389)
# T2 chain: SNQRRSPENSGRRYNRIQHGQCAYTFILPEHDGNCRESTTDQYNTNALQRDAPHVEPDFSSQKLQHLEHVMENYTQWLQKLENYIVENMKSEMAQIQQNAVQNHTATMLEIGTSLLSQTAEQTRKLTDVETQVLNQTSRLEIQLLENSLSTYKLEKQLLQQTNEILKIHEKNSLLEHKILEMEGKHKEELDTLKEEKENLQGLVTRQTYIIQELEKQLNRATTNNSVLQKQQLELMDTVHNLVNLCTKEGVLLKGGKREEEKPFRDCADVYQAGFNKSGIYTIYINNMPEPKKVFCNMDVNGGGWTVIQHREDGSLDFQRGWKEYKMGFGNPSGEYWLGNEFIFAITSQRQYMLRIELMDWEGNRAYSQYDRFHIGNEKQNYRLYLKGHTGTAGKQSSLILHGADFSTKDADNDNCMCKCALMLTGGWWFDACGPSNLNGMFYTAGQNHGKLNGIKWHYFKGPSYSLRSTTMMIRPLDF
# T3: human Ang-2 (human, UniProt O15123)
# T3 chain: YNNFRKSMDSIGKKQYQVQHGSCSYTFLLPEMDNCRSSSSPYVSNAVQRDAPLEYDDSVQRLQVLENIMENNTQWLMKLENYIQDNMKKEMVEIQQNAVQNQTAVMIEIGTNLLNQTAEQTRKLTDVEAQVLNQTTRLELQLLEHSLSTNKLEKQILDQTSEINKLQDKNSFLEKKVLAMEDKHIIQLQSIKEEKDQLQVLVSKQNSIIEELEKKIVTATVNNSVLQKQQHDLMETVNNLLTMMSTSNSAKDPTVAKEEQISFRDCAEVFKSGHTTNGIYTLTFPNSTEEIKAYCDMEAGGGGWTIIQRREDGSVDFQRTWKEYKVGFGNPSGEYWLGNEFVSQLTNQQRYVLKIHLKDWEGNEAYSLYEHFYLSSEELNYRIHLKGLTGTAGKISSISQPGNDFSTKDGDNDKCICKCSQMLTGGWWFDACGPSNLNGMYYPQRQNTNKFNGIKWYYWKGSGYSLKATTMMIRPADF
# B1: Con1 (N) (peptide)
# chain: MGAQKRPCEEIFGGCTYQLEGGGGG[Fc]
# modifications: not fully specified (bridges); printed as MGAQ-KRPCEEIFGGCTYQLEGGGGG-Fc; cysteine pairing not given here; also: Fc fusion domain at position 26
# B2: TN8-8 (N) (peptide)
# chain: MGAQKRPCEEMWGGCNYDLEGGGGGX
# modifications: not fully specified (C-terminus, bridges); printed as MGAQ-KRPCEEMWGGCNYDLEGGGGG-Fc; cysteine pairing not given here
# B3: TN8-14 (N) (peptide)
# chain: MGAQHQICKWDPWTCKHWLEGGGGGX
# modifications: not fully specified (C-terminus, bridges); printed as MGAQ-HQICKWDPWTCKHWLEGGGGG-Fc; cysteine pairing not given here
# B4: Con4 (N) 1K-WT (peptide)
# chain: MQEECEWDPWTCEHMGSGSATGGSGSTASSGSGSATHLEGGGGG[Fc]
# modifications: not fully specified (bridges); cysteine pairing not given here; also: Fc fusion domain at position 45
# B5: C17 (N) (peptide)
# chain: MGAQQYGCDGFLYGCMINLEGGGGG[Fc(7)]
# modifications: not fully specified (bridges); printed as MGAQ-QYGCDGFLYGCMINLE-GGGGG-Fc; cysteine pairing not given here; also: Fc fusion domain at position 26
# B6: 2xL1 (N) (designed binder)
# chain: MGAQKFNPLDELEETLYEQFTFQQGGGGGGGGKFNPLDELEETLYEQFTFQQLEGGGGG[Fc(7)]
# B7: Con1-6 (C) (peptide)
# chain: M[Fc]GGGGGAQGQDLRPCEDMFGCGTKDWYGLE
# modifications: not fully specified (bridges); cysteine pairing not given here; also: Fc fusion domain at position 2
# Target: T1, mouse Ang-2
# Experiment: competition ELISA vs Tie-2
row,IC50,Binder
1,~200 nM,B1
2,~700 nM,B2
3,33 nM,B3
4,1.9 nM,B4
5,13 nM,B5
6,0.8 nM,B6

# Target: T2, human Ang-1
# Experiment: competition ELISA vs Tie-2
row,IC50,Binder
1,> 1000 nM,B1
2,> 1000 nM,B2
3,> 1000 nM,B3
4,> 1000 nM,B5

# Target: T3, human Ang-2
# Experiment: competition ELISA vs Tie-2
row,IC50,Binder
1,1.56 nM,M[Fc(7)]GGGGGAQLLDYCEGVQDPFTFGCENLDLE (not fully specified (bridges); cysteine pairing not given here) [12-9-5 (C)]
2,0.06 nM,MGAQTNFQPLDELDQTLYEQWTLQQRLEGGGGG-Fc [L1-C3 (N)]
3,8.6 nM,B7
4,0.07 nM,MGAQQNFKPMDELEDTLYKQFLFQHSLEGGGGG[Fc(3)] [L1-11 (N)]
5,0.09 nM,MGAQYKFNPMDELEQTLYEEFLFQHALEGGGGG-{Fc″} [L1-22 (N)]
6,0.05 nM,MGAQQEYEPLDELDETLYNQWMFHQRLEGGGGG[Fc(3)] [L1-13 (N)]

# Target: T3, human Ang-2
# Experiment: competition ELISA vs Tie-2
# Remark: another data set of the same source
row,IC50,Binder
1,26 nM,B1
2,80 nM,B2
3,45 nM,B3
4,9 nM,B5
5,0.65 nM,B6

# Reference: patent US7205275 (dated 2007)
